Measurements published in the supplement of paper PMC10126150.
± gives the standard deviation of the averaged measurements.

What follows are sequences tested on ATP (assay: switch fluorescence ratio, 500 uM ATP over buffer (Cy3 cluster intensity, sum of 5 cycles each) (fold (ratio)); higher = stronger signal-on switching upon ATP binding; sequences stand for … in TCGTCGGCAGCGTCAGATGTGTATAAGAGACAGTTTTTTTTTTTTTTTTTTTTTTTTT…TC). Conditions: aptamer strand: ATP DNA aptamer (quencher-CACCTGGGGGAGTATTGCGGAGGAAGG + anchor), 100 nM annealed; ATP concentration: 500 uM.
How it was run: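 Switching-strand clusters labelled with Cy3 on a modified Illumina MiSeq flow-cell were annealed to 100 nM quencher-labelled ATP aptamer, imaged in selection buffer, and re-imaged after 15 min with 500 uM ATP at 22 °C. This was done over five cycles with NaOH stripping and re-annealing in between. The fluorescence ratio is summed target-cycle over summed buffer-cycle Cy3 intensity per cluster, averaged per switch-domain sequence, excluding clusters outside 100-1000 RFU.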
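Also: ATP exposure 15 min at 22 °C before imaging.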

| Sequence | switch fluorescence ratio |
| --- | --- |
| ATTTGTTAAG | 1 ± 0.016 |
| ATTTGTTATC | 0.98096 ± 8.4e-05 |
| ATTTGTTGGT | 0.991 ± 0.013 |
| ATTTGTTTTT | 0.978 ± 0.01 |
| ATTTTAACT | 0.988 ± 0.013 |
| ATTTTAACTT | 1.35 ± 0.44 |
| ATTTTAAGGC | 1.002 ± 0.0054 |
| ATTTTAGAAA | 1.01 ± 0.015 |
| ATTTTAGAAC | 1.013 ± 0.0031 |
| ATTTTAGAGT | 1.018 ± 0.0063 |
| ATTTTAGCGT | 0.9958 ± 0.0062 |
| ATTTTCAGTT | 1.01 ± 0.026 |
| ATTTTCATGG | 0.954 ± 0.02 |
| ATTTTCCAGT | 1.01 ± 0.011 |
| ATTTTCGGCG | 1.001 ± 0.0054 |
| ATTTTCTTCA | 1.02 ± 0.016 |
| ATTTTCTTTT | 1.06 ± 0.079 |
| ATTTTGAAGC | 0.991 ± 0.016 |
| ATTTTGAGTT | 0.982 ± 0.016 |
| ATTTTGCAAG | 0.994 ± 0.018 |
| ATTTTGGAGA | 1.02 ± 0.026 |
| ATTTTGGAGG | 0.9908 ± 0.0057 |
| ATTTTGTCAT | 0.972 ± 0.019 |
| ATTTTGTCCT | 1.08 ± 0.11 |
| ATTTTTAGAA | 1.03 ± 0.013 |

| Sequence | switch fluorescence ratio |
| --- | --- |
| ATTTTTAGTT | 0.991 ± 0.037 |
| ATTTTTCGGC | 0.99 ± 0.02 |
| ATTTTTCTTT | 0.992 ± 0.012 |
| ATTTTTGATT | 0.984 ± 0.018 |
| ATTTTTGCGC | 1.03 ± 0.055 |
| ATTTTTGGGT | 0.994 ± 0.031 |
| ATTTTTGTTC | 1.0252 ± 0.00061 |
| ATTTTTTAAC | 1.019 ± 0.0096 |
| ATTTTTTAGG | 0.993 ± 0.025 |
| ATTTTTTCAA | 0.981 ± 0.015 |
| ATTTTTTCTG | 0.9907 ± 0.0059 |
| ATTTTTTGCG | 1 ± 0.028 |
| ATTTTTTGGC | 0.996 ± 0.01 |
| ATTTTTTGTA | 0.984 ± 0.026 |
| ATTTTTTTTC | 0.989 ± 0.022 |
| CAAAAAATAC | 2.23 ± 1.7 |
| CAAAAAATC | 1.02 ± 0.028 |
| CAAAAAGAGC | 0.976 ± 0.015 |
| CAAAAAGGGA | 1.0178 ± 0.00094 |
| CAAAAAGTTT | 1.05 ± 0.097 |
| CAAAAGACGG | 1.04 ± 0.02 |
| CAAAAGTGAT | 1.01 ± 0.024 |
| CAAAAGTGGT | 1.01 ± 0.018 |
| CAAACGCCCG | 0.9968 ± 0.0073 |
| CAAACGTGTG | 0.991 ± 0.041 |

| Sequence | switch fluorescence ratio |
| --- | --- |
| CAAACTAGC | 0.99 ± 0.003 |
| CAAAGAGTGG | 1.0063 ± 0.00092 |
| CAAAGATAGG | 0.996 ± 0.018 |
| CAAAGCAAAA | 2.36 ± 2 |
| CAAAGCACCG | 1.031 ± 0.0063 |
| CAAAGCATCA | 1.05 ± 0.029 |
| CAAAGGACCT | 1.136 ± 0.0082 |
| CAAAGGACGG | 1.25 ± 0.38 |
| CAAAGGATAC | 1.2 ± 0.013 |
| CAAAGGGATA | 1 ± 0.054 |
| CAAAGGTCTC | 0.986 ± 0.023 |
| CAAAGTAGGC | 0.958 ± 0.018 |
| CAAAGTGAAC | 1.01 ± 0.017 |
| CAAATAACGG | 1 ± 0.023 |
| CAAATAATAG | 0.977 ± 0.033 |
| CAAATAGTCG | 1.01 ± 0.027 |
| CAAATATACT | 1.14 ± 0.13 |
| CAAATGGAAG | 0.998 ± 0.028 |
| CAAATGGGAA | 0.99 ± 0.016 |
| CAAATGGGTC | 1.06 ± 0.046 |
| CAAATGTCGT | 1.008 ± 0.008 |
| CAACACGGTG | 1.08 ± 0.038 |
| CAACAGGGGG | 1.06 ± 0.056 |
| CAACATGGAG | 0.9972 ± 0.0089 |
| CAACCCGGTA | 1.51 ± 0.7 |

| Sequence | switch fluorescence ratio |
| --- | --- |
| CAACCGAGGC | 1.18 ± 0.028 |
| CAACCGGTTG | 0.984 ± 0.017 |
| CAACCTGGGA | 1.022 ± 0.0017 |
| CAACGGGCGG | 1 ± 0.019 |
| CAACGGTTTC | 1.01 ± 0.019 |
| CAACGTTTTG | 0.977 ± 0.023 |
| CAACTGCACG | 1.22 ± 0.079 |
| CAACTGGCGG | 0.99 ± 0.017 |
| CAACTTGAAG | 0.977 ± 0.02 |
| CAACTTTAGT | 1.031 ± 0.0035 |
| CAAGAAATCT | 1.0078 ± 0.0005 |
| CAAGACGTTG | 0.974 ± 0.012 |
| CAAGAGAATG | 0.999 ± 0.037 |
| CAAGAGGGTG | 1.11 ± 0.15 |
| CAAGCGGACT | 1.06 ± 0.049 |
| CAAGCGGTT | 0.9628 ± 0.0056 |
| CAAGCTTAAA | 0.9729 ± 0.009 |
| CAAGCTTAGG | 0.995 ± 0.014 |
| CAAGGAATTT | 0.969 ± 0.023 |
| CAAGGACAGC | 1.05 ± 0.047 |
| CAAGGAGGGA | 1.01 ± 0.049 |
| CAAGGCTGGG | 1.02 ± 0.049 |
| CAAGGGGGAT | 1.01 ± 0.013 |
| CAAGGGGGTG | 1.03 ± 0.03 |
| CAAGGGGTTT | 0.99 ± 0.033 |
